Positions of bridges follow the written chain, without caps; N, C: chain ends. Groups on a side chain read outwards from the residue. Chains are numbered I, II in the order given. *: point of attachment. Biotin = O=C1N[C@H]2[C@H](CS[C@H]2CCCCC(=O)*)N1; AEEA = NCCOCCOCC(=O)O

For test [1], the target named is KDR (VEGFR-2), full-length receptor on cells (human), P35968. Briefly: specific binding of neutravidin-HRP complex at 2.78 nM to KDR-transfected cells; reference P1-XB (3X) + P6-XB (1X) at 5.55 nM.
Chain of KDR (VEGFR-2), full-length receptor on cells (human), P35968 (P35968 20-1356): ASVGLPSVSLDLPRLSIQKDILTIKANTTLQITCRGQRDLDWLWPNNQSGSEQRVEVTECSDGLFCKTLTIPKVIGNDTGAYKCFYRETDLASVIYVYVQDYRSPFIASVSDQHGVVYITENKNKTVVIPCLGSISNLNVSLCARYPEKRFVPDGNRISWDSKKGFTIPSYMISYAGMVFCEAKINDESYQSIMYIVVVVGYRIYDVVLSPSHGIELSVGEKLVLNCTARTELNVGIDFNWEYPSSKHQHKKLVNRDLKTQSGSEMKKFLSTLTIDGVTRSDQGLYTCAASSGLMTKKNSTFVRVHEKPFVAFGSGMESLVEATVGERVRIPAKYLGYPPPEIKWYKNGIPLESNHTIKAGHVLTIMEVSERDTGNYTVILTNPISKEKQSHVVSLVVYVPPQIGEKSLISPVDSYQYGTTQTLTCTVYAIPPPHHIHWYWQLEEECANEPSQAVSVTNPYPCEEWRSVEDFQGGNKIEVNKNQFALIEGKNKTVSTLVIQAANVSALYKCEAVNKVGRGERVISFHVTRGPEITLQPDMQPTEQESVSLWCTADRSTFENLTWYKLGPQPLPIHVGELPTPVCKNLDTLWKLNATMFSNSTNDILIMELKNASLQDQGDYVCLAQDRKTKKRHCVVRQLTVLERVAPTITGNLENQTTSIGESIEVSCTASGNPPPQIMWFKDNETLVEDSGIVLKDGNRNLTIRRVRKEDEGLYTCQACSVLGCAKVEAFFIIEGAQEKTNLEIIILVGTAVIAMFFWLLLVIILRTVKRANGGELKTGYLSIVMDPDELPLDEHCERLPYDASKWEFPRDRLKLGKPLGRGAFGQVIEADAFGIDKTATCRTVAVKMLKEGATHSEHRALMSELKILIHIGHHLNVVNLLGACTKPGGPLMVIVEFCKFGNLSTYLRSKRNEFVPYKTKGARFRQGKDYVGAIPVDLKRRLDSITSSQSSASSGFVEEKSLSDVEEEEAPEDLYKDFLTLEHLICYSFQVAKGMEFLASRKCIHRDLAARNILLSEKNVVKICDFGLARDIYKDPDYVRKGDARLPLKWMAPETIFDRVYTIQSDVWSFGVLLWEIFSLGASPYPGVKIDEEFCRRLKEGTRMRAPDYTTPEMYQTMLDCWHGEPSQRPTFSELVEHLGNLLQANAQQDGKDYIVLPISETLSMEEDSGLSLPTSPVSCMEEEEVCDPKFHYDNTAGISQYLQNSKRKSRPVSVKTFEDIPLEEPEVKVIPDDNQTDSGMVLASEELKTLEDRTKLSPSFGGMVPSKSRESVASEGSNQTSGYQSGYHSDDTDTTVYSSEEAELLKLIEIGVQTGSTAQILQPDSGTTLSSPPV
The target is the same in test [2]. The experiment in a line: specific binding of neutravidin-HRP complex at 3.33 nM to KDR-transfected cells; reference P5-XB (1X) + P1-XB (3X).
Test [3] has the same target. The experiment in a line: competition with 300 pM 125I-VEGF on KDR-transfected 293H cells; peptide 30 µM. The following applies: remark: other sources report otherwise.
For test [4] the target is unchanged. The experiment in a line: competition with 300 pM 125I-VEGF on KDR-transfected 293H cells; peptide 0.3 µM. The following applies: remark: other sources report otherwise.

B1: P1-XB (1X) + P6-XB (1X) + P12-XB (2X) / neutravidin-HRP (peptide, not shown: large carriers; small tags and cut ends)
peptide 1: Ac-GDSRVCWEDSWGGEVCFRYDPGGGK([AEEA-AEEA-Biotin])-NH2
peptide 2: Ac-AGPTWCEDDWYYCWLFGTGGGK([AEEA-AEEA-Biotin])-NH2
modifications: disulfide I:6-I:16, II:6-II:13 (inferred); not fully specified; also: bound via biotin to neutravidin-HRP
In the case of B1, the Heteromer/Monomer Ratio in test [1] was found to be 47 fold.

B2: P1-XB (2X) + P6-XB (1X) + P5-XB (1X) / neutravidin-HRP (peptide, not shown: large carriers; small tags and cut ends)
peptide 1: Ac-GDSRVCWEDSWGGEVCFRYDPGGGK([AEEA-AEEA-Biotin])-NH2
peptide 2: Ac-AGPKWCEEDWYYCMITGTGGGK([AEEA-AEEA-Biotin])-NH2
modifications: disulfide I:6-I:16, II:6-II:13 (inferred); not fully specified; also: bound via biotin to neutravidin-HRP
As for B2, in test [2], the Heteromer/Monomer Ratio was found to be 109 fold.

B3: P5-XB (peptide)
peptide: Ac-AGPKWCEEDWYYCMITGTGGGK([AEEA-AEEA-Biotin])-NH2
modifications: disulfide 6-13 (inferred)
On to B3, for which the % inhibition of 125I-labeled VEGF binding in test [3] was 48%; in test [4], 24.4%.

B4: P1-XB (1X) + P6-XB (2X) + P5-XB (1X) / neutravidin-HRP (peptide, not shown: large carriers; small tags and cut ends)
peptide 1: Ac-GDSRVCWEDSWGGEVCFRYDPGGGK([AEEA-AEEA-Biotin])-NH2
peptide 2: Ac-AGPKWCEEDWYYCMITGTGGGK([AEEA-AEEA-Biotin])-NH2
modifications: disulfide I:6-I:16, II:6-II:13 (inferred); not fully specified; also: bound via biotin to neutravidin-HRP
On to B4, for which, in test [2], the Heteromer/Monomer Ratio came out at 242 fold.

B5: P1-XB (1X) + P6-XB (1X) + P5-XB (2X) / neutravidin-HRP (peptide, not shown: large carriers; small tags and cut ends)
peptide 1: Ac-GDSRVCWEDSWGGEVCFRYDPGGGK([AEEA-AEEA-Biotin])-NH2
peptide 2: Ac-AGPKWCEEDWYYCMITGTGGGK([AEEA-AEEA-Biotin])-NH2
modifications: disulfide I:6-I:16, II:6-II:13 (inferred); not fully specified; also: bound via biotin to neutravidin-HRP
With B5, the Heteromer/Monomer Ratio in test [2] is 213 fold.
